Laboratory results from patent US11618906B2, “Hydroxylation techniques” (HYPHA DISCOVERY LTD., priority 2018, dated 2023).
Substitutions are numbered along the chain they refer to. Names and notes keep the numbering of the source.

B1: aluC09M17: cytochrome P450 aluC09 mutant T291N; amino acid sequence SEQ ID NO: 16 (protein, listed as Amycolatopsis lurida)
chain: MTDVEETTATLPLARKCPFSPPPEYERLRRESPVSRVGLPSGQTAWALTRLEDIREMLSSPHFSSDRQSPSFPLMVARQIRREDKPFRPSLIAMDPPEHSRARRDVVGEFTVKRMKALQPRIQQIVDEHLDALLAGPKPADLVQALSLPVPSLVICELLGVPYSDHEFFQSCSSRMLSREVTAEERMTAFEQLENYLDELVTKKEANATEDDLLGRQILKQRETGEADHGELVGLAFLLLIAGHETTANMISLGTVTLLENPDQLAKIKADPGKTLAAIEELLRVFTIAENATSRFATADVEIGGTLIRAGEGVVGLSNAGNHDPDGFENPDTFDIERGARHHVAFGFGVHQCLGQNLARLELQIVFDTLFRRVPGLRIAVPVDELPFKHDSTIYGLHALPVTW
B2: aluC09M31: cytochrome P450 aluC09 mutant T291S; amino acid sequence SEQ ID NO: 36 (protein, listed as Amycolatopsis lurida)
chain: B1 chain with N291S
B3: aluC09M36: cytochrome P450 aluC09 mutant T291F; amino acid sequence SEQ ID NO: 56 (protein, listed as Amycolatopsis lurida)
chain: B1 chain with N291F

Assay: Hydroxylation of diclofenac catalysed by cytochrome P450 aluC09 and mutants (UPLC-PDA-MS)
Assay type: biochemical
Settings: % by UV peak area at 275 nm; 0.125 mg/ml substrate, 27° C., 16-20 hours
Outline: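 Conversion of diclofenac (0.125 mg/ml) to hydroxy metabolites measured by UPLC with UV and MS detection, identities confirmed by authentic samples. Reactions used P450 aluC09 variants with ferredoxin aluF03, reductase SCF15A and an NADP/G6P/G6PDH recycling system, pH 7.4 phosphate, 27° C, 16-20 hours.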

Molecule	4′,5-dihydroxy-diclofenac 1.38 mins	4′-hydroxy-diclofenac (1) 1.62 mins	5-hydroxy-diclofenac (2) 1.58 mins	Diclofenac (Substrate) 1.81 mins
B1	3.2%	44.8%	21.8%	32.3%
B2	3.3%	43.3%	22.8%	32.3%
B3	3.6%	42.8%	23.0%	33.0%

Same assay, conditions: diclofenac; ratio of UV peak areas at 275nm

Molecule	Hydroxylated Ratio hydroxy 1:hydroxy 2
B1	2.1
B2	1.9
B3	1.9

Assay: Hydroxylation of flufenamic acid catalysed by cytochrome P450 aluC09 and mutants
Assay type: biochemical
Settings: % by UV peak area at 275 nm; 0.125 mg/ml substrate, 27° C., 16-20 hours
Outline: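 Conversion measured by UPLC-MS (UV and MS) after acetonitrile extraction, following 16-20 h shaking at 27° C. Reaction: 0.125 mg/ml substrate, P450 mutant plus ferredoxin aluF03 and reductase SCF15A, 5 mM G6P, 1 mM NADP, 2 U/ml G6PDH, pH 7.4 phosphate with 5 mM MgCl2.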

Molecule	Flufenamic Acid (Substrate) 1.93 mins	Hydroxy-Flufenamic Acid (1) 1.69 mins	Hydroxy-Flufenamic Acid (2) 1.65 mins
B1	94.4%	3.4%	2.2%
B2	89.1%	6.8%	4.1%
B3	89.8%	7.7%	2.6%

Same assay, conditions: flufenamic acid; ratio of UV peak areas at 275 nm

Molecule	Hydroxylated Ratio 1:2
B1	1.6
B2	1.7
B3	3.0

Assay: Hydroxylation of aceclofenac catalysed by cytochrome P450 aluC09 and mutants
Assay type: biochemical
Settings: % by UV peak area at 275 nm; 0.125 mg/ml substrate, 27° C., 16-20 hours
Outline: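 Conversion was assessed by UPLC-MS (UV and MS detection) after acetonitrile extraction of reactions run 16-20 h at 27° C, shaking. Reactions contained substrate at 0.125 mg/ml, P450 mutant plus ferredoxin and reductase partners, 1 mM NADP with glucose-6-phosphate regeneration, in phosphate buffer pH 7.4.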

Molecule	Aceclofenac (Substrate) (1.80 mins)	Dihydroxy-Aceclofenac (1.42 mins)	Hydroxy-Aceclofenac (1) (1.64 min)	Hydroxy-Aceclofenac (2) (1.60 min)
B1	9.2%	43.2%	6.9%	40.8%
B2	12.3%	43.1%	8.5%	36.1%
B3	9.3%	44.6%	7.2%	38.9%

Same assay, conditions: aceclofenac; ratio of UV peak areas at 275 nm

Molecule	Hydroxylated Ratio 2:1
B1	5.9
B2	4.2
B3	5.4

Assay: Hydroxylation / de-N-ethylation of napropamide catalysed by cytochrome P450 aluC09 and mutants
Assay type: biochemical
Settings: % by UV peak area at 275 nm; 0.125 mg/ml substrate, 27° C., 16-20 hours
Outline: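 Conversion of napropamide (0.125 mg/ml) to hydroxylated and de-ethylated metabolites was measured by UPLC-MS after acetonitrile extraction. Reactions ran 16-20 h at 27° C in pH 7.4 potassium phosphate (50 mM) with 5 mM MgCl2, 1 mM NADP, 5 mM G6P and 2 UN/ml G6PDH. Enzymes were lyophilised P450 aluC09 variants, ferredoxin aluF03 and ferredoxin reductase SCF15A.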

Molecule	Desethyl Napropamide (1.62 min)	Desethyl-hydroxy-Napropamide (1.41 min)	Hydroxy-Napropamide (1) (1.53 min)	Hydroxy-Napropamide (2), (1.52 min)	M-2Da (unidentified) (1.89 min)	Napropamide (substrate)
B1	53.7%	10.6%	0.9%	3.1%	6.0%	28.7%
B2	44.8%	4.6%	2.4%	5.1%	7.0%	37.9%
B3	40.5%	3.1%	1.2%	3.5%	6.3%	46.8%

Same assay, conditions: napropamide; ratio of UV peak areas

Molecule	Hydroxylated Ratio 2:1
B1	3.4
B2	2.1
B3	3.0

Assay: O-demethylation of indomethacin catalysed by cytochrome P450 aluC09 and mutants
Assay type: biochemical
Settings: % by UV peak area at 275 nm; 0.125 mg/ml substrate, 27° C., 16-20 hours
Outline: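 Conversion was quantified by UPLC-UV/MS after acetonitrile extraction of 16-20 h, 27° C. shaken reactions. These contained 0.125 mg/ml substrate, mutant P450 with partner ferredoxin and reductase, 1 mM NADP plus 5 mM G6P and 2 U/ml G6PDH, in pH 7.4 phosphate with 5 mM MgCl2.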

Molecule	Indomethacin (1.74 mins)	O-demethyl-Indomethacin (1.52 mins)
B1	84.4%	15.6%
B2	84.8%	15.2%
B3	80.3%	19.7%

Assay: Metabolism of ritonavir by P450 aluC09 and mutants
Assay type: biochemical
Settings: percent of substrate being converted; 0.125 mg/ml, 27° C., 16-20 hours; [CYP] per enzyme as in Table 8
Outline: (§1)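 Lyophilised P450 aluC09 mutants with ferredoxin aluF03 and ferredoxin reductase SCF15A were incubated with 0.125 mg/ml substrate in 50 mM potassium phosphate pH 7.4, 5 mM MgCl2, at 27° C. NADPH was regenerated by 5 mM G6P, 1 mM NADP and 2 UN/ml G6PDH. Conversion was measured by UPLC-MS after 16-20 hours.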

Molecule	% conversions (avg) Ritonavir
B1	51.7%
B2	73.5%
B3	73.8%

Assay: Metabolism of celecoxib by P450 aluC09 and mutants
Assay type: biochemical
Settings: percent of substrate being converted; 0.125 mg/ml, 27° C., 16-20 hours; [CYP] per enzyme as in Table 8
Outline: as §1

Molecule	% conversions (avg) Celecoxib
B1	8.1%
B2	3.6%
B3	5.7%

Assay: Metabolism of epothilone B by P450 aluC09 and mutants
Assay type: biochemical
Settings: percent of substrate being converted; 0.125 mg/ml, 27° C., 16-20 hours; [CYP] per enzyme as in Table 8
Outline: as §1

Molecule	% conversions (avg) Epothilone B
B1	16.8%
B2	35.3%
B3	62.3%

Assay: Metabolism of buparvaquone by P450 aluC09 and mutants
Assay type: biochemical
Settings: percent of substrate being converted; 0.125 mg/ml, 27° C., 16-20 hours; [CYP] per enzyme as in Table 8
Outline: as §1

Molecule	% conversions (avg) Buparvaquone
B1	17.9%
B2	11.3%
B3	9.5%

Assay: Metabolism of BIRB796 by P450 aluC09 and mutants
Assay type: biochemical
Settings: percent of substrate being converted; 0.125 mg/ml, 27° C., 16-20 hours; [CYP] per enzyme as in Table 8
Outline: as §1

Molecule	% conversions (avg) BIRB796
B1	23.2%
B2	15.3%
B3	20%

Assay: Metabolism of bosentan by P450 aluC09 and mutants
Assay type: biochemical
Settings: percent of substrate being converted; 0.125 mg/ml, 27° C., 16-20 hours; [CYP] per enzyme as in Table 8
Outline: as §1

Molecule	% conversions (avg) Bosentan
B1	100%
B2	99%
B3	99.5%

Assay: Metabolism of valsartan by P450 aluC09 and mutants
Assay type: biochemical
Settings: percent of substrate being converted; 0.125 mg/ml, 27° C., 16-20 hours; [CYP] per enzyme as in Table 8
Outline: as §1

Molecule	% conversions (avg) Valsartan
B1	21.9%
B2	33.9%
B3	45.7%

Assay: Metabolism of ruxolitinib by P450 aluC09 and mutants
Assay type: biochemical
Settings: percent of substrate being converted; 0.125 mg/ml, 27° C., 16-20 hours; [CYP] per enzyme as in Table 8
Outline: as §1

Molecule	% conversions (avg) Ruxolitinib
B1	33.9%
B2	41.7%
B3	42.1%

Assay: Metabolism of 4-pyrrolidylacetophenone by P450 aluC09 and mutants
Assay type: biochemical
Settings: percent of substrate being converted; 0.125 mg/ml, 27° C., 16-20 hours; [CYP] per enzyme as in Table 8
Outline: as §1

Molecule	% conversions (avg) 4-pyrrolidylacetophenone
B1	21.7%
B2	4.9%
B3	6.8%

Assay: Metabolism of tivantinib by P450 aluC09 and mutants
Assay type: biochemical
Settings: percent of substrate being converted; 0.125 mg/ml, 27° C., 16-20 hours; [CYP] per enzyme as in Table 8
Outline: as §1

Molecule	% conversions (avg) Tivantinib
B1	53.9%
B2	56%
B3	30.4%

Assay: Metabolism of tofacitinib by P450 aluC09 and mutants
Assay type: biochemical
Settings: percent of substrate being converted; 0.125 mg/ml, 27° C., 16-20 hours; [CYP] per enzyme as in Table 8
Outline: as §1

Molecule	% conversions (avg) Tofacitinib
B1	4.4%
B2	1.5%
B3	2.4%
